Results on 15 molecules are retold here after publication PMC10359924, “Identification and characterisation of anti-IL-13 inhibitory single domain antibodies provides new insights into receptor selectivity and attractive opportunities for drug discovery” (Frontiers in Immunology, 2023).

In assay [1] the target is human Interleukin-13 (IL-13) (1-113) (Homo sapiens). The assay can be described thus: cell-based or functional assay.
In assay [2] the target is T1, human Interleukin-13 (IL-13) (1-113) (Homo sapiens).
T1 construct: source: 15N or 15N/13C labelled for NMR
The assay can be described thus: BLI; Octet QKe; N-terminally His-tagged VHH loaded on Ni-NTA biosensors (100 nM), titrated with untagged IL-13; 300 s association, 300 s dissociation; 25°C; HBS-EP+ (10 mM HEPES pH 7.4, 150 mM NaCl, 3 mM EDTA, 0.005% Tween-20); steady-state curves, one-site binding model. To be noted: both partners purified.

T1 sequence (chain, as listed by the source): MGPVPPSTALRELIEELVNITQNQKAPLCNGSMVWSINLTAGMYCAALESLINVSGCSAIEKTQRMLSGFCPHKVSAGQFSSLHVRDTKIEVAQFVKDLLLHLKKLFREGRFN

B1: VHH229 (VHH)
VHH: EVQLVESGGGLVQPGGSLRLSCAASGFTFRRYDMSWVRQVPGKGLEWVSDINSGGDSTNYADSVKGRFTISRDNNKNVLYLQMNSLKPEDTAVYYCNADTYVPKDGGGWSPEYDIWGQGTQVTVSS
notes: From a naive llama VHH phage library (UCB Biopharma); cloned into pET21a(+); not shown: His6, N-terminal, kept
With B1, in assay [1], the “IC50 of inhibition of IL-13 signalling (STAT6/SEAP reporter, HEK-Blue IL-4/IL-13 cells); blocks IL-13 signalling through IL-13Rα1 and IL-4Rα” value amounted to 11.4 µM. In addition, in assay [2], binding was put at a Kd of 0.2 µM.

B2: VHH245 (VHH)
VHH: EVQLVESGGDLVQPGGSLRLSCSASGFTFDDYAMNWIRQAPGKGLEWVSSISWNGDSTYYAESMKGRFTISRDNAKNTLYLQMNSLQSEDTAVYYCNAQEYVGAHVYDYWGQGTQVTVSS
notes: as for B1
As for B2, in assay [1], the “IC50 of inhibition of IL-13 signalling (STAT6/SEAP reporter, HEK-Blue IL-4/IL-13 cells); blocks IL-13 signalling through IL-13Rα1 and IL-4Rα” value amounted to 3.7 µM. Besides, in assay [2], the Kd (in general, the equilibrium constant for the complex coming apart) is 0.2 µM.

B3: VHH235 (VHH)
VHH: EVQLVESGGGLVQPGGSLRLSCAASGFNFGNSAMSWFRQAPGKGLEWVSSINSGGGGSVYRASVKGRFTISRDDAKNTLFLQMNSLKPEDTAVYYCNADTYVPKDGGGWSPEYDIWGQGTLVTVSS
notes: as for B1
Consider B3, for which the “IC50 of inhibition of IL-13 signalling (STAT6/SEAP reporter, HEK-Blue IL-4/IL-13 cells); blocks IL-13 signalling through IL-13Rα1 and IL-4Rα” value in assay [1] amounted to 74.3 µM. The dissociation constant (Kd) in assay [2] was 3.6 µM.

B4: VHH227 (VHH)
VHH: EVQLVESGGNLVQPGGSLRLSCAASGFTFSKYAMNWVRQAPGKGLEWVSAINSFAGSTSYADSVKGRFTISRDNAKNTLYLQMNSLKPEDTAVYYCKYRGYYGQGTQVTVSS
notes: as for B1
As for B4, the “IC50 of inhibition of IL-13 signalling (STAT6/SEAP reporter, HEK-Blue IL-4/IL-13 cells); blocks IL-13 signalling through IL-13Rα1 and IL-4Rα” value in assay [1] is 63.5 µM. In assay [2], the Kd stood at 5.5 µM.

B5: VHH201 (VHH)
VHH: EVQLVESGGGLVQAGESLTLSCAASGNSFDDYAVGWFRQAPGKEREGVGCINCETGVTTYYADSVKGRFTIHRDNAKNTVYLQMNSLKLEDTATYYCAADRWGTRLVAATYDYWGQGTQVTVSS
notes: as for B1
Consider B5, for which, in assay [1], the “IC50 of inhibition of IL-13 signalling (STAT6/SEAP reporter, HEK-Blue IL-4/IL-13 cells); blocks IL-13 signalling through IL-13Rα1 and IL-4Rα” value was found to be 37.7 µM. The Kd in assay [2] was found to be 0.9 µM.

B6: VHH228 (VHH)
VHH: QVQLVESGGGLVQPGGSLTLSCAVSGFRFDDYAIGWFRQAPGKEREGVGCINCETGVTTYYADSVKGRFTIHRDNAKNTVYLQMNSLKLEDTATYYCAADRWGTRLVAATYDYWGQGTQVTVSS
notes: as for B1
With B6, the “IC50 of inhibition of IL-13 signalling (STAT6/SEAP reporter, HEK-Blue IL-4/IL-13 cells); blocks IL-13 signalling through IL-13Rα1 and IL-4Rα” value in assay [1] was 56 µM. Also, binding in assay [2] was put at a Kd of 0.9 µM.

B7: VHH209 (VHH)
VHH: EVQLVESGGGLVQPGGSLRLSCAASGFTFSNYAMSWVRQAPGKGLEWVSSIESGSSRTIYRDSVKGRFTISRDNAKNTVYLQMNSLKPEDTAVYYCNADTYVPKDGSGWSPEYDVYGQGTQVTVSS
notes: as for B1
In the case of B7, the “IC50 of inhibition of IL-13 signalling (STAT6/SEAP reporter, HEK-Blue IL-4/IL-13 cells); blocks IL-13 signalling through IL-13Rα1 and IL-4Rα” value in assay [1] stood at 67.8 µM. The same molecule gave a Kd in assay [2] of 2.2 µM.

B8: VHH234 (VHH)
VHH: EVQLVESGGGLVQPGGSLRLSCAASGFTFSSYAMNWVRQAPGKGLEWVSAINSGGGTTDYADSVKGRFTISRDNAKNTLYLQMNSLKPEDTAVYYCARGKLGNGLEWGQGTQVTVSS
notes: as for B1
On to B8, for which the “IC50 of inhibition of IL-13 signalling (STAT6/SEAP reporter, HEK-Blue IL-4/IL-13 cells); blocks IL-13 signalling through IL-13Rα1 and IL-4Rα” value in assay [1] stood at 49.6 µM. Besides, the Kd in assay [2] worked out at 4.1 µM.

B9: VHH251 (VHH)
VHH: EVQLVESGGGLVQPGGSLRLSCQASGFAFSSSTMYWVRQTPGKGLEWVSSITRGGTNTYYRDSVKGRFTISRDNNKNALYLQMNSLKPEDTAVYYCNADTYVPKDGGGWSPEYDIWGQGTLVTVSS
notes: as for B1
For the molecule B9, in assay [1], the “IC50 of inhibition of IL-13 signalling (STAT6/SEAP reporter, HEK-Blue IL-4/IL-13 cells); blocks IL-13 signalling through IL-13Rα1 and IL-4Rα” value came to 6.9 µM. In addition, the Kd in assay [2] came out at 2.2 µM.

B10: VHH264 (VHH)
VHH: EVQLVESGGGLVQPGGSLRLSCQASGFAFSSSTMYWVRQTPGKGLEWVSSITRGGTNTYYRDSVKGRFTISRDDAKNTLYLQMNSLKPEDTAVYYCNADTYVPKDGGGWSPDYDIWGQGTQVTVSS
notes: as for B1
With B10, the “IC50 of inhibition of IL-13 signalling (STAT6/SEAP reporter, HEK-Blue IL-4/IL-13 cells); blocks IL-13 signalling through IL-13Rα1 and IL-4Rα” value in assay [1] turned out to be 14.5 µM. The molecule also displayed a Kd in assay [2] of 3.9 µM.

B11: VHH214 (VHH)
VHH: EVQLVESGGGLVQAGGSLRLSCAASGLLFDINDMGWYRQAPGKQREMVATIRSGGSTVYAEAVKGRFTISRDDAKHSVHLQMNNLKPEDSAVYYCHRTYNSYADWGQGTQVTVSS
notes: as for B1
B11: in assay [1], the “IC50 of inhibition of IL-13 signalling (STAT6/SEAP reporter, HEK-Blue IL-4/IL-13 cells); blocks IL-13 signalling through IL-13Rα1 and IL-4Rα” value is 154 µM. Moreover, the Kd in assay [2] came to 4.8 µM.

B12: VHH204 (VHH)
VHH: EVQLVESGGGLVQAGGSLRLSCVASGRTISSYAMTWVRHAPGKGLEWVSTISTDASNTYYADSVKGRFTVSRDNAKNTVYLQMNSLKPEDTALYYCARVRLDGWEYDYWGQGTQVTVSS
notes: From a naive llama VHH phage library (UCB Biopharma); cloned into pET21a(+); also called VH204; not shown: His6, N-terminal, kept
For B12, the “IC50 of inhibition of IL-13 signalling (STAT6/SEAP reporter, HEK-Blue IL-4/IL-13 cells); blocks IL-13 signalling through IL-13Rα1 and IL-4Rα” value in assay [1] amounted to 26.2 µM. The molecule further gave a Kd in assay [2] of 2.6 µM.

B13: VHH210 (VHH)
VHH: EVQLVESGGGLVQPGGSLRLSCAASGFTFSSSWMYWVRQVPGKGLEWLSDVDPGGGNTYYADSVKGRFTISRDNAKKVLYLQMNSLKPEDTAVYYCNADTYVPKDGGGWSPEYDIWGQGTQVTVSS
notes: as for B1
Turning to B13, the “IC50 of inhibition of IL-13 signalling (STAT6/SEAP reporter, HEK-Blue IL-4/IL-13 cells); blocks IL-13 signalling through IL-13Rα1 and IL-4Rα” value in assay [1] amounted to 0.2 µM. Besides, in assay [2], the Kd is 0.04 µM.

B14: VHH238 (VHH)
VHH: EVQLVESGGGLVQPGGSLRLSCAASGFTISNHDMHWVRQAPGKGLEWVSSINPGGTYTEYRDSVKGRFTISRDNAKNTLYLQMNDLKPQDTAVYYCNAWGKGVEYDYWGQGTQVTVSS
notes: as for B1
As to B14, in assay [1], the “IC50 of inhibition of IL-13 signalling (STAT6/SEAP reporter, HEK-Blue IL-4/IL-13 cells); blocks IL-13 signalling through IL-13Rα1 and IL-4Rα” value is 1.7 µM. In assay [2], binding was characterised by a dissociation constant (Kd) of 0.2 µM.

B15: VHH281 (VHH)
VHH: EVQLVESGGGLVQPGGSLRLSCAASGFTFGSYDMSWVRQAPGKGPEWVSYIDSGGRTTYYADSVKGRFTISRDNARNTVYLQMNSLKPEDTAVYYCAREAHGSGWSAANYYGMDYWGEGTQVTVSS
notes: as for B1
Turning to B15, the “IC50 of inhibition of IL-13 signalling (STAT6/SEAP reporter, HEK-Blue IL-4/IL-13 cells); blocks IL-13 signalling through IL-13Rα1 and IL-4Rα” value in assay [1] is 34.3 µM. In addition, binding in assay [2] was characterised by a dissociation constant (Kd) of 0.4 µM.
